The values that follow come from patent US20120107330A1 (published 2012).

By koff is commonly meant the rate constant with which the complex falls apart. Usually Kd stands for the free concentration of one partner at which half of the binding sites on the other are occupied at equilibrium, for simple one-to-one binding. For orientation: kon means a measure of how fast the partners come together.

The target in assay [1] is human TNFR1 (recombinant, R&D Systems cat no. 636-R1/CF, biotinylated) (human) (UniProt P19438). Put plainly: BIAcore, human TNFR1 on SA chip, second injection after DOM1h-574-16 as competitor.
The target in assay [2] is T1, human TNFR1 on MRC-5 cells (human, UniProt P19438 30-455).
T1 sequence (looked up): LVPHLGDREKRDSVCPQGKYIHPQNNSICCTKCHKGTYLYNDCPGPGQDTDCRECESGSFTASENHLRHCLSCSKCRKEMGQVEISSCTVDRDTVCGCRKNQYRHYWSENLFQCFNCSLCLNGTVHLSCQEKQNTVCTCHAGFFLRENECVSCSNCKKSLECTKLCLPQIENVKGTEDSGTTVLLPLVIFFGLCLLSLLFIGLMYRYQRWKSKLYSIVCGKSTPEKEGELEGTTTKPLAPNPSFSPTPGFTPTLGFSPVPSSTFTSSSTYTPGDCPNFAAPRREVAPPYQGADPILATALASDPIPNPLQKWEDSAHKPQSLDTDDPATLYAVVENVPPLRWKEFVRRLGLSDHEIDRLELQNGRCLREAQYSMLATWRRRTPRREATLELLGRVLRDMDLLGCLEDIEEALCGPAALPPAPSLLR
Put plainly: cell-based or functional assay.

The target in assay [3] is T2, human serum albumin (HSA, Sigma-Aldrich) (human, UniProt P02768 25-609).
T2 construct: also called human albumin
T2 sequence (P02768 25-609 limits assumed): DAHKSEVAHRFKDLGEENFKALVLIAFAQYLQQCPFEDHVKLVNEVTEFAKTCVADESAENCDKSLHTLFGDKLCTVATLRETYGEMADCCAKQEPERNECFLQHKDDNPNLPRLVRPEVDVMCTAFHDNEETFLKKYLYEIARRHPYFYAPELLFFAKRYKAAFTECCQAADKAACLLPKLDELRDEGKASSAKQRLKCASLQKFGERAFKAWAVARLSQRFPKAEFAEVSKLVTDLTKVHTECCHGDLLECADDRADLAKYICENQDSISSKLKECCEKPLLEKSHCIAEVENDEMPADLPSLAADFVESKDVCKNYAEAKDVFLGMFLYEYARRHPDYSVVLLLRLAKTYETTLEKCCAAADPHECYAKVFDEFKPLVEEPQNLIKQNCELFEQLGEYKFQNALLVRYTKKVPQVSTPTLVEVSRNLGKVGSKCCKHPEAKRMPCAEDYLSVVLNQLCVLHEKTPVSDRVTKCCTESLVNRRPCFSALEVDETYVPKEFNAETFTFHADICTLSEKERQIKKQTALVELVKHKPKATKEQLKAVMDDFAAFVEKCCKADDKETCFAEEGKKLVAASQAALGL
Briefly: BIAcore, HSA on CM5 chip. Here is the method:
FIG. 23. BIAcore analysis for binding of DOM0100-AlbudAb in-line fusions to human serum albumin (HSA). HSA (Sigma-Aldrich) was coated on a BIAcore CM5 chip using EDC/NHS chemistry according to manufacturer's instructions. Subsequently, the DMS constructs, each consisting N-terminally to C-terminally of an anti-TNFR1 dAb-Linker-AlbudAb and identified in Table 6, were injected at 1 μM over the HSA surface and binding was monitored. […] The corresponding BIAcore trace for each DMS clone is indicated with an arrow.
In general terms: SPR reads the build-up and loss of mass on a sensor chip optically.

In assay [4] the target is T3, mouse serum albumin (MSA, Sigma-Aldrich) (mouse, UniProt P07724 25-608).
T3 construct: also called mouse albumin
Briefly: BIAcore, MSA on CM5 chip. Here is the method:
FIG. 22. BIAcore analysis for binding of DOM0100-AlbudAb in-line fusions to mouse serum albumin (MSA). MSA (Sigma-Aldrich) was coated on a BIAcore CM5 chip using EDC/NHS chemistry according to manufacturer's instructions. Subsequently, the DMS constructs, each consisting N-terminally to C-terminally of an anti-TNFR1 dAb-Linker-AlbudAb and identified in Table 6, were injected at 1 μM over the MSA surface and binding was monitored. […] The corresponding BIAcore trace for each DMS clone is indicated with an arrow.
After expression and purification, all constructs were tested on the BIAcore for binding to both mouse and human serum albumin. The off-rates were determined and used to discriminate between the AlbudAbs for their suitability in prolonging the half-life of the fusion molecule. Whereas the linker had little influence on the affinity of the AlbudAb for albumin, a significant difference existed between the dAbs and their albumin affinity. The best AlbudAb for mouse binding was DOM7h-11-15 followed by DOM7m-16 and DOM7h-11-12 (FIG. 22).

The target of assay [5] is T4, human TNFR1 (recombinant, R&D Systems cat no. 636-R1/CF, biotinylated) (human, UniProt P19438 30-211, limits assumed, biotinylated with EZ-Link NHS-LC-LC-biotin).
T4 construct: it is not tied to the BIAcore reagent; also called p55; hTNFR1
T4 sequence (looked up): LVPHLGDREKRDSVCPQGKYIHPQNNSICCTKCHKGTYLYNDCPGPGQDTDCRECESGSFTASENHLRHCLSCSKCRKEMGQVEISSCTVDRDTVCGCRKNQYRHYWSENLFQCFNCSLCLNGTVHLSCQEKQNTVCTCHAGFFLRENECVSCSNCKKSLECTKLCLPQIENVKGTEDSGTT
Put plainly: BIAcore, biotinylated human TNFR1 on SA chip, purified dAb injected (concentration not given).

Assay [6] addresses T5, mouse TNFR1 on L929 cells (mouse, UniProt P25118 30-454).
T5 sequence (looked up): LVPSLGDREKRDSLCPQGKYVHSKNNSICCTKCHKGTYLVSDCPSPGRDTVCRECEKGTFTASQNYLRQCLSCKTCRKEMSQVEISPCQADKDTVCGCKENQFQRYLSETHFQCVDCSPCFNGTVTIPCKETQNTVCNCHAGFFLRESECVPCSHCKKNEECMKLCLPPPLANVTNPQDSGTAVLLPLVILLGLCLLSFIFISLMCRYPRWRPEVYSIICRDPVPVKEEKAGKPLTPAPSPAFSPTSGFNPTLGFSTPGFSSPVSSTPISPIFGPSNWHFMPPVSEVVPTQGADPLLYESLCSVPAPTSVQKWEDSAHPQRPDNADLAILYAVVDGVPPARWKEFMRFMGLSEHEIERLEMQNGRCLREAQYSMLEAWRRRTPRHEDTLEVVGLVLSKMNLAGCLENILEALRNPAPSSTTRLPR
Briefly: cell-based or functional assay.

Assay [7] addresses T1, human TNFR1 on MRC-5 cells. Briefly: cell-based or functional assay. The source holds these as a separate data set.
The target of assay [8] is T4, human TNFR1 (recombinant, R&D Systems …). Briefly: BIAcore, TNFR1 (species not given, taken as human).
Assay [9] concerns the target T6, peptide A3 (negative control fragment of human TNFR1) (human, cysteine pairing not given here; also: biotinylated, position not given here).
T6 construct: also called control peptide
T6 peptide: SGSGNDCPGPGQDTDCREC
Put plainly: BIAcore, biotinylated peptide A3 on SA chip.

In assay [10] the target is T7, peptide D2 (domain-1 peptide of human TNFR1) (human, cysteine pairing not given here; also: biotinylated, position not given here).
T7 construct: also called peptide 1
T7 peptide: SGSGNSICCTKCHKGTYLY
Put plainly: BIAcore, biotinylated peptide D2 on SA chip.

For assay [11], the target named is T8, peptide E5 (overlapping domain-3 peptide of human TNFR1) (human, also: biotinylated, position not given here).
T8 construct: also called peptide 3
T8 peptide: SGSGNQYRHYWSENLFQCF
Put plainly: BIAcore, biotinylated peptide E5 on SA chip.

Assay [12] concerns the target T9, peptide D5 (domain-3 peptide of human TNFR1) (human, also: biotinylated, position not given here).
T9 construct: also called peptide 2
T9 peptide: SGSGCRKNQYRHYWSENLF
Briefly: BIAcore, biotinylated peptide D5 on SA chip.

Where a chain is given by its changes, count along the chain named. Ends that are not written are not given here.

In the case of “mAb Clone 4.12 (Invitrogen, cat. no. Zymed 33-0100) (antibody)”, the decrease of binding (RUs) in the presence of the competitor in assay [1] is 20%.

B1: DMS0184 (bispecific antibody)
chain: EVQLLESGGGLVQPGGSLRLSCAASGFTFVKYSMGWVRQAPGKGPEWVSQISNTGDRTYYADSVKGRFTISRDNSKNTLYLQMNSLRAEDTAVYYCAIYTGRWEPFDYWGQGTLVTVSSASTSGPSDIQMTQSPSSLSASVGDRVTITCRASRPIGTTLSWYQQKPGKAPKLLIWFGSRLQSGVPSRFSGSGSGTDFTLTISSLQPEDFATYYCAQAGTHPTTFGQGTKVEIKR
notes: anti-TNFR1 dAb / AlbudAb in-line fusion
With B1, in assay [2], the “ND50 (MRC5)” value worked out at 19 nM. Also, the koff was 0.16 s⁻¹ in [3] and 0.72 s⁻¹ in [4].

B2: DOM1h-549 (other)
VH: EVQLLESGGGLVQPGGSLRLSCAASGFTFVDYEMHWVRQAPGKGLEWVSSISESGTTTYYADSVKGRFTISRDNSKNTLYLQMNSLRAEDTAVYYCAKRRFSASTFDYWGQGTLVTVSS
notes: VH dAb
Turning to B2, the binding result in [5] was “binds”.

B3: DMS0132 (bispecific antibody)
chain: EVQLLESGGGLVQPGGSLRLSCAASGFTFVKYSMGWVRQAPGKGLEWVSQISDTADRTYYAHSVKGRFTISRDNSKNTLYLQMNSLRAEDTAVYYCAIYTGRWVPFEYWGQGTLVTVSSASTDIQMTQSPSSLSASVGDRVTITCRASRPIGTTLSWYQQKPGKAPKLLILWNSRLQSGVPSRFSGSGSGTDFTLTISSLQPEDFATYYCAQAGTHPTTFGQGTKVEIKR
notes: as for B1
Turning to B3, the “L929 ND50” value in [6] was found to be 6.8 nM. Besides, the “MRC5 ND50” value in assay [7] was 1.04 nM. In addition, in assay [8], the dissociation constant (Kd) was found to be 0.25 nM, the off-rate (koff) was 4.6e-05 s⁻¹ and the on-rate (kon) came to 190000 M⁻¹ s⁻¹.

B4: DMS0134 (bispecific antibody)
chain: B3 chain with V30F
notes: as for B1
On to B4, for which, in [6], the “L929 ND50” value was found to be 5.8 nM. Besides, the “MRC5 ND50” value in assay [7] is 0.96 nM. Further, in [8], the Kd stood at 0.26 nM, the koff is 4.9e-05 s⁻¹ and the kon was 190000 M⁻¹ s⁻¹.

B5: DMS0133 (bispecific antibody)
chain: B3 chain with V30F, V104A
notes: as for B1
Regarding B5, the “L929 ND50” value in assay [6] is 4.2 nM. Besides, the “MRC5 ND50” value in [7] was found to be 0.99 nM. For the same molecule, in assay [8], the equilibrium dissociation constant (Kd) was determined as 0.2 nM, the koff came out at 3.6e-05 s⁻¹ and the kon was around 180000 M⁻¹ s⁻¹.

B6: DMS0135 (bispecific antibody)
chain: B3 chain with V30F, A61S
notes: as for B1
On to B6, for which the “L929 ND50” value in [6] is 5.9 nM. For the same molecule, in assay [7], the “MRC5 ND50” value worked out at 1.17 nM. Also, in assay [8], the Kd is 0.32 nM, the off-rate (koff) was 5.7e-05 s⁻¹ and the kon was 180000 M⁻¹ s⁻¹.

B7: DMS0188 (bispecific antibody)
chain: EVQLLESGGGLVQPGGSLRLSCAASGFTFVKYSMGWVRQAPGKGPEWVSQISNTGDRTYYADSVKGRFTISRDNSKNTLYLQMNSLRAEDTAVYYCAIYTGRWEPFDYWGQGTLVTVSSASTSGPSDIQMTQSPSSLSASVGDRVTITCRASRPIGTMLSWYQQKPGKAPKLLILFGSRLQSGVPSRFSGSGSGTDFTLTISSLQPEDFATYYCAQAGTHPTTFGQGTKVEIKRAAAEQKLISEEDLN
notes: as for B1
In the case of B7, the “ND50 (MRC5)” value in assay [2] came out at 17 nM. For the same molecule, the values for the koff in [3] and in assay [4] were 0.12 s⁻¹ and 0.08 s⁻¹, respectively.

B8: DMS0163 (bispecific antibody)
chain: B7 chain with F176A, G177F
notes: as for B1
On to B8, for which the “ND50 (MRC5)” value in assay [2] was 12 nM. The off-rate (koff) in assay [3] turned out to be 0.0024 s⁻¹; in assay [4], 0.0062 s⁻¹.

B9: DOM1h-509 (other)
VH: EVQLLESGGGLVQPGGSLRLSCAASGFTFSQYRMHWVRQAPGKSLEWVSSIDTRGSSTYYADPVKGRFTISRDNSKNTLYLQMNSLRAEDTAVYYCAKAVTMFSPFFDYWGQGTLVTVSS
notes: VH domain antibody (dAb)
As for B9, the binding result in assay [5] is recorded as “binds”.

B10: DOM1m-21-23 (other)
VH: EVQLLESGGGLVQPGGSLRLSCAASGFTFNRYSMGWLRQAPGKGLEWVSRIDSYGRGTYYEDPVKGRFSISRDNSKNTLYLQMNSLRAEDTAVYYCAKISQFGSNAFDYWGQGTQVTVSS
notes: VH dAb; also called DOM1m-12-23 [sic]
With B10, the binding result in [9], in assay [10], in [11] and in [12] was “no binding (tested: 2.5 µM)” throughout.
